Here are results for one molecule from patent publication US20050196396A1 (GREENVILLE HOSPITAL SYSTEM, published 2005).

This assay addresses T1, KDR (full length, on cells) (human, UniProt P35968 20-1356).
T1 construct: whole, on cells; also called VEGFR2; kinase domain receptor
Briefly: radioligand binding on HUVEC; 125I-KDR (Ig4-7) displaced by unlabeled KDR (Ig4-7). As for the experimental part:
¹²⁵I-KDR (Ig4-7) (100,000 cpm=<1 ng) was incubated with HUVEC.
Total binding of KDR (Ig4-7) was also compared between HUVEC and two human breast cancer cell lines that were reported to have KDR expression (T47-D and MCF-7 cell lines) (FIG. 7). Specific binding of KDR (Ig4-7) was approximately 88%.

T1 sequence (P35968 20-1356): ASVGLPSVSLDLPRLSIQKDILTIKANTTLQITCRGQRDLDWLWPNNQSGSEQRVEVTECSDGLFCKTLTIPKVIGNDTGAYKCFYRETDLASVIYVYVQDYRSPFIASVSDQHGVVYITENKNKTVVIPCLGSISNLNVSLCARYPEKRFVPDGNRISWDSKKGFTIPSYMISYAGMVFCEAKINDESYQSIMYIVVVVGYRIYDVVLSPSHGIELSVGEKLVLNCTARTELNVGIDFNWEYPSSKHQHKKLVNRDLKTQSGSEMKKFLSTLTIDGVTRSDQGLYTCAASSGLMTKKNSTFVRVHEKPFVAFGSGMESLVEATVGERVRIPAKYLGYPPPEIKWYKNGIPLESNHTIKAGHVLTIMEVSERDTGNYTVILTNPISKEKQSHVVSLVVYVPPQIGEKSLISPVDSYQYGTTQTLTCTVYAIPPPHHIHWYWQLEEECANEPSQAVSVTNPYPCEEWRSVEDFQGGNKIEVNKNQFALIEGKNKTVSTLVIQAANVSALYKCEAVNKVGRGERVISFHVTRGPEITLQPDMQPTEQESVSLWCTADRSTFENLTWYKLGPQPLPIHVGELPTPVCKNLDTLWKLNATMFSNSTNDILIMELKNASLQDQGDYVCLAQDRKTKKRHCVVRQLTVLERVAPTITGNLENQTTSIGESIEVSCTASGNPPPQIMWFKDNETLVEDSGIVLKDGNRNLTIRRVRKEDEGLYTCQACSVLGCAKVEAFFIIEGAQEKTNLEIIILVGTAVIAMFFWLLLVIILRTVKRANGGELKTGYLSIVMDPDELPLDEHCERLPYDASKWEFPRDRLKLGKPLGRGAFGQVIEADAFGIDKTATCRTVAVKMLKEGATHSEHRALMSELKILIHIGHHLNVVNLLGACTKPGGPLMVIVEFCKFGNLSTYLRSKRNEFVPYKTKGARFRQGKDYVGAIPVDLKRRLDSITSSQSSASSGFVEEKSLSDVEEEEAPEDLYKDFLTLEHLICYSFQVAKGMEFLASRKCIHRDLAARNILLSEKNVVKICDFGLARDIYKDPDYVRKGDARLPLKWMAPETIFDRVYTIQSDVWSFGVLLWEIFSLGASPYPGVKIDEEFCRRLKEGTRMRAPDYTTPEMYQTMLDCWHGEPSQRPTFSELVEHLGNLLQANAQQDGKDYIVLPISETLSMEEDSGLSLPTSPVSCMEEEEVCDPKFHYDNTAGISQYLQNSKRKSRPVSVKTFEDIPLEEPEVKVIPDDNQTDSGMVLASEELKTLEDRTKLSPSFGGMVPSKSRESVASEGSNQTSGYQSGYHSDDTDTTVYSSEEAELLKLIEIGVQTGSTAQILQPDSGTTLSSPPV

B1: KDR (Ig4-7) (receptor)
chain: HMFVAFGSGMESLVEATVGERVRIPAKYLGYPPPEIKWYKNGIPLESNHTIKAGHVLTIMEVSERDTGNYTVILTNPISKEKQSHVVSLVVYVPPQIGEKSLISPVDSYQYGTTQTLTCTVYAIPPPHHIHWYWQLEEECANEPSQAVSVTNPYPCEEWRSVEDFQGGNKIEVNKNQFALIEGKNKTVSTLVIQAANVSALYKCEAVNKVGRGERVISFHVTRGPEITLQPDMQPTEQESVSLWCTADRSTFENLTWYKLGPQPLPIHVGELPTPVCKNLDTLWKLNATMFSNSTNDILIMELKNASLQDQGDYVCLAQDRKTKKRHCVVRQLTVLERVAPTITGNLENQTTSIGESIEVSCTASGNPPPQIMWFKDNETLVEDSGIVLKDGNRNLTIRRVRKEDEGLYTCQACSVLGCAKVEAFFIIEGAQEK
modifications: 125I-labeled as tracer (labelled residues not stated); unlabeled as competitor
notes: also called 125I-KDR (Ig4-7); 125I-labeled KDR (Ig4-7)
One may read the EC50 as the concentration needed to bring the measured effect to its halfway point. In the case of B1, the EC50 was ~10 µg/mL.
